Laboratory results taken from US20060134740A1.
The star is where a group is joined. AMC = Cc1cc(=O)oc2cc(N*)ccc12

What was measured:
[1] = target: subtilisin BPN' mutant S149 (Bacillus amyloliquefaciens) (UniProt P00782); experiment: transient state kinetics with fluorogenic substrate
[2] = target: subtilisin BPN' mutant S149 (Bacillus amyloliquefaciens) (UniProt P00782); experiment: transient state kinetics with fluorogenic substrates
[3] = target: fusion of the pR8 prodomain onto the N-terminus of the 56 amino acid B domain (GB) of streptococcal Protein G, P06654

Ks [1] [µM]	fold preference over sDVRAF-AMC [2] [fold]	Binder	cleavage of the fusion protein [3]
5	–	{code s}-DVRAF-{AMC} [fluorogenic substrate sDVRAF-AMC]	–
1	5	{code s}-DFRAM-{AMC} [fluorogenic pentapeptide substrate sDFRAM-AMC]	–
–	–	wild type subtilisin BPN' (protein) AQSVPYGVSQIKAPALHSQGYTGSNVKVAVIDSGIDSSHPDLKVAGGASMVPSETNPFQDNNSHGTHVAGTVAALNNSIGVLGVAPSASLYAVKVLGADGSGQYSWIINGIEWAIANNMDVINMSLGGPSGSAALKAAVDKAVASGVVVVAAAGNEGTSGSSSTVGYPGKYPSVIAVGAVDSSNQRASFSSVGPELDVMAPGVSIQSTLPGNKYGAYNGTSMASPHVAGAAALILSKHPNWTNTQVRSSLENTTTKLGDSFYYGKGLINVQAAAQ	The fusion protein was rapidly and specifically cleaved to release GB from pR8
